What all share (assay): G assay titration, PDZ 5 ug/ml
Assay [1] has as its target T1, GST-MUPP1 PDZ domain 7 (Homo sapiens (Human)), O75970.
T1 chain: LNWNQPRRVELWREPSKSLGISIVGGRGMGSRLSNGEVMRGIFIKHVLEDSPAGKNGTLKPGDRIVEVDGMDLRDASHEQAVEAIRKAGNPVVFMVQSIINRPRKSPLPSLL

In assay [2] the target is T2, GST-MINT1 PDZ domain 1 (Mus musculus (Mouse)), B2RUJ5.
T2 chain: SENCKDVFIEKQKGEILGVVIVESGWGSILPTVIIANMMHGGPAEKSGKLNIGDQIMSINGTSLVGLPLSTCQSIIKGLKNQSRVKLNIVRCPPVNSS

Assay [3] addresses T3, GST-SYNTENIN PDZ domain 1 (Homo sapiens (Human)), O00560.
T3 chain: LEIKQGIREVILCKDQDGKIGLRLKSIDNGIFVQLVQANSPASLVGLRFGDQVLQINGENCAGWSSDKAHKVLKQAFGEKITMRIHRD

Assay [4] has as its target GST-TAX IP2 PDZ domain 1 [GST: P08515].
The target in assay [5] is T4, GST-FLJ00011 PDZ domain 1 (Homo sapiens (Human)), Q9H5P4.
T4 chain: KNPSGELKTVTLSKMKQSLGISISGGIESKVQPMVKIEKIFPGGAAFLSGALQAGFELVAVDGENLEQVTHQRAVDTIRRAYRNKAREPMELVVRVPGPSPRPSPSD

The target of assay [6] is T5, GST-TIP1 PDZ domain 1 (Table 9 insert) (Homo sapiens (Human)), O14907.
T5 chain: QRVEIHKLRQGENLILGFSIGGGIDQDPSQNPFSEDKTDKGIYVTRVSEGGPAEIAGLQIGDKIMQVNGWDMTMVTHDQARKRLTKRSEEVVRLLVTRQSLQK

Assay [7] deals with T6, GST-MINT1 PDZ domain 2 (Mus musculus (Mouse)), B2RUJ5.
T6 chain: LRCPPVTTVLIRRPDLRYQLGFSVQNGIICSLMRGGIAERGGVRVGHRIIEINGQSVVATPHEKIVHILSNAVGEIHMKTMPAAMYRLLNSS

For assay [8], the target named is T7, GST-ZO-1 PDZ domain 1 (Rattus norvegicus (Rat)), A0A0G2.
T7 chain: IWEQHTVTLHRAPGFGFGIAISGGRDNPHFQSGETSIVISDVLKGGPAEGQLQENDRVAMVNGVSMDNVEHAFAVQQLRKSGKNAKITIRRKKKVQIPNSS

In assay [9] the target is T8, GST-SITAC-18 PDZ domain 2 (Homo sapiens (Human)), Q9H190.
T8 chain: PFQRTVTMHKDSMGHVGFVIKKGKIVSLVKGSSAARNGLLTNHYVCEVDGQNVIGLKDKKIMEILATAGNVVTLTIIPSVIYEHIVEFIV

In assay [10] the target is T9, GST-PTPL1 PDZ domain 2 (Homo sapiens (Human)), Q12923.
T9 chain: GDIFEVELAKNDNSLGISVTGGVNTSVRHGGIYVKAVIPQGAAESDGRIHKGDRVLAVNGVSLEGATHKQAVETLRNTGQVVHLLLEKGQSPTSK

Assay [11] concerns the target GST-PSD95 PDZ domain 1 (Homo sapiens).
For assay [12], the target named is T10, GST-MUPP1 PDZ domain 11 (Homo sapiens (Human)), O75970.
T10 chain: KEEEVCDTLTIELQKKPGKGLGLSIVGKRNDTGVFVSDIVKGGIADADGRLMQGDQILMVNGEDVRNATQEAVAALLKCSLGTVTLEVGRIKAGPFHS

The target of assay [13] is T11, GST-HEMBA 1003117 PDZ domain 1 (Homo sapiens (Human)), Q96JH8.
T11 chain: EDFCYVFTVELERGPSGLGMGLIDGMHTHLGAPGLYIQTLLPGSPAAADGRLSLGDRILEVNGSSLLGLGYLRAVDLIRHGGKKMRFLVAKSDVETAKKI

Assay [14] addresses T12, GST-NeDLG PDZ domain 2 (Rattus norvegicus (Rat)), Q62936.
T12 chain: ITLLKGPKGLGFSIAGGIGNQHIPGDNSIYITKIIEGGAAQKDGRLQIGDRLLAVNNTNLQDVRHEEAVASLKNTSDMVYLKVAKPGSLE

The target in assay [15] is T13, GST-KIAA0807(S) PDZ domain 1 (Homo sapiens (Human)), Q6P0Q8.
T13 chain: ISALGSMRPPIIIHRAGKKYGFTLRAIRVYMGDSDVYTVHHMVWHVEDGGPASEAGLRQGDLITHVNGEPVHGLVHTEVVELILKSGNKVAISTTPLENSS

Assay [16] deals with GST-Atrophin-1 Interacting Protein PDZ domain 3 (Rattus norvegicus (Rat)), O88382.
Assay [17] has as its target T14, GST-Connector Enhancer PDZ domain 1 (Homo sapiens (Human)), Q969H4.
T14 chain: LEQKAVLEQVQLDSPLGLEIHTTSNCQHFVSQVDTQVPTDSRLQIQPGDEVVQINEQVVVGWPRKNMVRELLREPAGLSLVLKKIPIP

Assay [18] addresses T15, GST-Outer Membrane PDZ domain 1 (Homo sapiens (Human)), P57105.
T15 chain: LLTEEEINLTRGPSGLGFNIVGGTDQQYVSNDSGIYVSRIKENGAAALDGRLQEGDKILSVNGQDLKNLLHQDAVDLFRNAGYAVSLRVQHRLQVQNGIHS

GST-TAX IP2 PDZ domain 1 [GST: P08515], sequence (P08515 whole entry, the tested form may be a part): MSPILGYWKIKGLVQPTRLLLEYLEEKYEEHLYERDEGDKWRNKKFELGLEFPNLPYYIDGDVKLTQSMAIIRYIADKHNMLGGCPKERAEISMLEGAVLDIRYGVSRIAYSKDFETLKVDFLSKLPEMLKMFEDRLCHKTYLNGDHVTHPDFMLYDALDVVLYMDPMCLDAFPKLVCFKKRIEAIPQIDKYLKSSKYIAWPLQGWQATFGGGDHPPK
GST-Atrophin-1 Interacting Protein PDZ domain 3 (Rattus norvegicus (Rat)), O88382, sequence (O88382 774-865, tags or fused parts left off): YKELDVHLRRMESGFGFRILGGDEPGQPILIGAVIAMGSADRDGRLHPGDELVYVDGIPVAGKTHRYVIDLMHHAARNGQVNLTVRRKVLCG

As for KTMPAAMYRLLTAQEQPVYI (modifications not checked) [MINT-1], the dissociation constant (Kd) – broadly, the free concentration of one partner at which half of the binding sites on the other are occupied at equilibrium, for simple one-to-one binding – in [1] amounted to 1500 nM; in [2], 2000 nM; in assay [3] it was 800 nM.

In the case of VPGALDYAAFSSALYGESDL (modifications not checked) [a-actinin 2], the dissociation constant Kd in assay [4] is 2500 nM.

Consider AWDDSARAAGGQGLHVTAL (modifications not checked) [LPAP], for which the figures for the dissociation constant Kd in assay [5] and in assay [6] were 1500 nM and 5000 nM, respectively.

Take ILNSIQVMRAQMNQIQSVEV (modifications not checked) [ephrin B2]: the Kd is 3000 nM in [7], 6000 nM in assay [8] and 5000 nM in assay [9].

Take VGTLLLERVIFPSVKIATLV (modifications not checked) [AdenoE4 typ9]: the dissociation constant Kd in assay [10] stood at 200 nM; in assay [11], 100 nM; in [12] it was 100 nM; in assay [13], 300 nM; in assay [14], 100 nM; in [15] it was 200 nM. Moreover, the Kd in assay [16], in assay [17] and in assay [18] was 100 nM each time.
